# Test: soluble on expression in E. coli; label from the status in PepcDB or PDB records
row,Sequence,soluble on expression in E. coli
1,MGHHHHHHSHMKEDKEVQTGYMNAQIEIIPCKICGDKSSGIHYGVITCEGCKGFFRRSQQSNATYSCPRQKNCLIDRTSRNRCQHCRLQKCLAVGMSRDAVKFGRMSKKQRDSLYAEVQKHRMQQQQRDHQQQPG,soluble
2,MGHHHHHHSHMKNLVLKIISGSFPPVSLHYSYDLRSLVSQLFKRNPRDRPSVNSILEKGFIAKRIEKFLSPQLIAEEFCLKTFSKFGSQPIPAKRPASGQNSISVMPAQKITKPAAKYGIPLAYKKYGDKKLHEKKPLQKHKQAHQTPEKRVNTGEERRKISEEAARKRRLEFIEKEKKQKDQIISLMKAEQMKRQEKERLERINRAREQGWRNVLSAGGSGEVKAPFLGSGGTIAPSSFSSRGQYEHYHAIFDQMQQQRAEDNEAKWKREIYGRGLPERGILPGVRPGFPYGAAGHHHFPDADDIRKTLKRLKAVSKQANANRLDCDDP,not soluble
3,MGHHHHHHSHMKPNVGQGSTSVQTAMESELGESSATINKRLCKSTIELSENSLLPASSMLTGTQSLLQPHLERVAIDALQLCCLLLPPPNRRKLQLLMRMISRMSQNVDMPKLHDAMGTRSLMIHTFSRCVLCCAEEVDLDELLAGRLVSFLMDHHQEILQVPSYLQTAVEKHLDYLKKGHIENPGDGLFAPLPTYPYCKQISAQEFDEQKVSTSQAAIAELLENIIKNRSLPLKEKRKKLKQFQKEYPLIYQKRFPTTESEAALFGDKPTIKQPMLILRKPKFRSLR,not soluble
4,MGHHHHHHSHMLFIDNQNINDPRINLAIEEYCVKHLDPEQQYLLFYVNQPSIIIGKNQNTIEEINTKYVEENGIIVVRRLSGGGAVYHDLGNLNFSFITKDDGDSFHNFKKFTEPVIQALHQLGVEAELSGRNDIVVDGRKISGNAQFATKGRIFSHGTLMFDSAIDHVVSALKVKKDKIESKGIKSIRSRVANISEFLDDKMTTEEFRSHLLRHIFNTNDVGNVPEYKLTEKDWETIHQISKERYQNWDWNYGRSPKFNLNHSKRYPVGSIDLHLEVKKGKIEDCKIFGDFFGVGDVSEIENLLVGKQYERSVIADVLEGVNLKHYFGNITKEDFLDLIY,not soluble
5,MGHHHHHHSHMNGEAICSALPTIPYHKLADLRYLSRGASGTVSSARHADWRVQVAVKHLHIHTPLLDSERKDVLREAEILHKARFSYILPILGICNEPEFLGIVTEYMPNGSLNELLHRKTEYPDVAWPLRFRILHEIALGVNYLHNMTPPLLHHDLKTQNILLDNEFHVKIADFGLSKWRMMSLSQS,not soluble
6,MGHHHHHHSHMQVTITLTSPIIREENMREGDVTSGMVKDPPDVLDRQKCLDALAALRHAKWFQARANGLQSCVIIIRILRDLCQRVPTWSDFPSWAMELLVEKAISSASSPQSPGDALRRVFECISSGIILKGSPGLLDPCEKDPFDTLATMTDQQREDITSSAQFALRLLAFRQIHKVLGMDPLPQMSQRFNIHNNRKRRRDSDGVDGFEAEGKKDKKDYDNF,not soluble
7,MGHHHHHHSHMRQRLLPSVTSLLLVALLFPGSSQARHVNHSATEALGELRERAPGQGTNGFQLLRHAVKRDLLPPRTPPYQGDVPPGIRNTICRMQQGICRLFFCHSGEKKRDICSDPWNRCCVSNTDEEGKEKPEMDGRSGI,not soluble
8,MGHHHHHHSHMRTYSDKNELKEEVLKSYKKYIAEFNDIPEKLKDLRIDEVDRTPAENLAYQVGWTTLILKWESDEQSGLEVKTPTETFKWNQLGELYQHFTETYASLTIKELTAQLNDNVDAIGNMIDSMSDEVLFKPHMRNWADSATKNAVWEVYKFIHINTVAPFGTFRTKIRKWKKVALK,soluble
9,MGHHHHHHSHMSEESDMDKAIKETSILEEYSINWTQKLGAGISGPVRVCVKKSTQERFALKILLDRPKARNEVRLHMMCATHPNIVQIIEVFANSVQFPHESSPRARLLIVMEMMEGGELFHRISQHRHFTEKQASQVTKQIALALRHCHLLNIAHRDLKPENLLFKDNSLDAPVKLCDFGFAKIDQGDLMTPQFTPYYVAPQVLEAQRRHQKEKSGIIPTSPTPYTYNKSCDLWSLGVIIYVMLCGYPPFYSKHHSRTIPKDMRRKIMTGSFEFPEEEWSQISEMAKDVVRKLLKVKPERRLTIEGVLDHPWLNSTEALDNVLPSAQLMMDKAVVAGIQQAHAEQLANMRIQDLKVSLKPLHSVNNPILRKRKLLGTKPKDSVYIHDHENGAEDSNVALEKLRDVIAQCILPQAGENEDEKLNEVMQEAWKYNRECKLLRDTLQSFSWNGRGFTDKVDRLKLAEIVKQVIEEQTTSHESQ,not soluble
10,MGHHHHHHSHMSEPLCTSRPVLLPLNLKNIAPGRCISLTPFGHTDNLGFQCETCTDPNLNKSIPPKLEDPAFSKNELCSVTLTFYQQAEQVIQHKQFYLSLLNLSMDAVRNSLTQPGLLYCYLVTKAFMLEGFPIFFEETNGMLGLYLVFRRDLLHLHESYLRLLIDNLGNYDISVDSVGRSYIIKLCPVGNVSRIPTIPADNVCLAVNNLDYGDDVKASWIECFNIVSRLS,soluble
11,MGHHHHHHSHMSIFTPTNQIRLTNVAVVRMKRAGKRFEIACYKNKVVGWRSGVEKDLDEVLQTHSVFVNVSKGQVAKKEDLISAFGTDDQTEICKQILTKGEVQVSDKERHTQLEQMFRDIATIVADKCVNPETKRPYTVILIERAMKDIHYSVKTNKSTKQQALEVIKQLKEKMKIERAHMRLRFILPVNEGKKLKEKLKPLIKVIESEDYGQQLEIVCLIDPGCFREIDELIKKETKGKGSLEVLNLKDVEEGDEKFE,soluble
12,MGHHHHHHSHMSQQRPDRIKQMLHYLWQHRHLSTQQAMELFGYAEATVRRDFQYIVNQYPGMIRGHGCLDFDDSTDDKEYVFDVKRTLQSVAKREIAALARTMIKDGDCFFLDSGSTCLELAKCLADARVKVICNDIKIANELGCFPHVESYIIGGLIRPGYFSVGESLALEMINAFSVERAFISCDALSLETGITNATMFEVGVKTRIIQRSREVILMADHSKFDAVEPHAVATLSCIKTIISDSGLPETIAQRYQRAGCQLFLPHSIK,soluble
13,MGHHHHHHSHMSSPSRKRTIAESKKKHEEKQMKAQQLREKLREEKTLKLQKLLEREKDVRKWKEELLDQRRRMMEEKLLHAEFKREVQLQAIVKKAQEEEAKVNEIAFINTLEAQNKRHDVLSKLKEYEQRLNELQEERQRRQEEKQARDEAVQERKRALEAERQAR,soluble
14,MGHHHHHHSHMSVSVHENRKSRASSGSINIYLFHKSSYADSVLTHLNLLRQQRLFTDVLLHAGNRTFPCHRAVLAACSRYFEAMFSGGLKESQDSEVNFDNSIHPEVLELLLDYAYSSRVIINEENAESLLEAGDMLEFQDIRDACAEFLEKNLHP,not soluble
15,MGHHHHHHSHMTDFEDKQVANNETMEDAMNSVQEVSVGDIVKGEVLAIEDKQVVVGIEGAGVEGVVPAKELSTLPVEDVHELVKVGDVLDLVVITSIGKDKENGSYLLSKRRLDAKKVWEEIEQDFQAGKVIEAPVTNVVKGGLVVDVGVRGFVPASMVEDHFVADFSEYKGQTLAFKIIEIEPSENRLILSHKAVVEAEKESKKEELLSSLHDGDVVEGKVARLTDFGAFIDLGGVDGLVHVSEIAHQHVGKPSDALTVGEDVQVKILSINPEEGRISLSIKETLPGPWTDIETKAAAGTVLDGTVKRLTSFGAFVEVFPGVEGLVHISQISHKHIATPHEVLHEGDQVQVKVLEVNPEEHRIALSIKALEPKPESQEEPKEEQEYELPEENTGFTMGDILGDALSDAKEEE,soluble
16,MGHHHHHHSHMTRVKLQDGVHIIKETKEEVTPEQLKLMRTQDVKYIEMKRVAEAKKIERLKSELHLLDFQGKQQNKHVFFFDTKKEVEQFDVATHLQTAPELVDRVFNRPRIETLQKEKVKGVTNQTGLKRIAKERQKQYNCLTQRIEREKKLFVIAQKIQTRKDLMDKTQKVKVKKETVNFPAIYKFQSRRKR,not soluble
17,MGHHHHHHSHMTSYDQIWETFLNNCETSDFDVPQQEEDIYKSIRNAILHFNNRLRDNLKADNSTETVNRELSEDDLLILAHFLRYIFLLNKKTLFENTWQPFTNDVGIKNFGTQLNSLKQSVMDQKDEIERLILNAAVDYL,soluble
18,MGHHHHHHSHMTWKGGGGWMAAVTQGPGITWGSLLPSAVRQGEQKCKNTDVSIFLNWGVEGCLLTASKELTVEGPQCIPPLPESLSPLGPPGSQSSEETDPSCFNSCCCFSLWAGPGRGRAEQAPGGLQSQLDLAVSPAGSPADTGEVG,not soluble
19,MGHHHHHHSHMVITIYYDVKVRFIVRGCGQYISYRCQEKRNTYFAEYWYQAQCCQYDYCNSWSSPQLQSSLPEPHDRPLALPLSDSQIQWFYQALNLSLPLPNFHAGTEPDGLDPMVTLSLNLGLSFAELRRMYLFLNSSGLLVLPQAGLLTPHPS,not soluble
20,MGHHHHHHSHMVPGGKPILCPRRTTAQLGPRRNPAWSLQAGRLFSTQTAEDKEEPLHSIISSTESVQGSTSKHEFQAETKKLLDIVARSLYSEKEVFIRELISNASDALEKLRHKLVSDGQALPEMEIHLQTNAEKGTITIQDTGIGMTQEELVSNLGTIARSGSKAFLDALQNQAEASSKIIGQFGVGFYSAFMVADRVEVYSRSAAPGSLGYQWLSDGSGVFEIAEASGVRTGTKIIIHLKSDCKEFSSEARVRDVVTKYSNFVSFPLYLNGRRMNTLQAIWMMDPKDVREWQHEEFYRYVAQAHDKPRYTLHYKTDAPLNIRSIFYVPDMKPSMFDVSRELGSSVALYSRKVLIQTKATDILPKWLRFIRGVVDSEDIPLNLSRELLQESALIRKLRDVLQQRLIKFFIDQSKKDAEKYAKFFEDYGLFMREGIVTATEQEVKEDIAKLLRYESSALPSGQLTSLSEYASRMRAGTRNIYYLCAPNRHLAEHSPYYEAMKKKDTEVLFCFEQFDELTLLHLREFDKKKLISVETDIVVD,soluble
21,MGHHHHHHSHMVRKQSPYEDVQKQSRQHDPYKIIEPTPKKYLEGSAYEVIYNHLSYKHEILDKYIETNTAVFWIKKDDIFSVATILRHLGYECLSEMSAIDLCAKKGHFELFYQFVGFSDSCKNRRRVRVKCVLLPNESVDSLSFLYRSANWSEREAYDMLGIVFDKHPYLKRLIMPHDWVGHPLLRSYPLKGDEFAQWYEVDKIFGKEYREVVGKEQRDSARVDEKDTFNFAKIGYEQGKGEELKEVEEKHAFKKIPFVKDLHKIAPTILKKRL,soluble
22,MGHHHHHHSHMYKGRTVLQKVVGHPSCTFLYGPPDPAVRATDPQQVAFPSPAELPDQKQLRYTEELLRHVAPGLHLELRGPQLWARRMGKCKVYWEVGGPPGSASPSTPACLLPRNCDTPIFDFRVFFQELVEFRARQRRGSPRYTIYLGFGQDLSAGRPKEKSLVLVKLEPWLCRVHLEGTQREGVSSLDSSSLSLCLSSANSLYDDIECFLMELEQPA,not soluble
23,MGHHHHHHSHPSSPDSLHYLSPTGVNEYLMALWSVGSVVQDYDSDKLFPAFGFGAQVPPDWQVSHEFALNFNPSNPYCAGIQGIVDAYRQALPQVRLYGPTNFAPIINHVARFAAQAAHQGTASQYFMLLLLTDGAVTDVEATREAVVRASNLPMSVIIVGVGGADFEAMEQLDADGGPLHTRSGQAAARDIVQFVPYRRFQNAPREALAQTVLAEVPTQLVSYFRAQGWAPLKPLPP,not soluble
24,MGHHHHHHSHVLLVTANVGSLFDDPENLQKNWLREFYQVVHTHKPHFMALHCQEFGGKNYEASMSHVDKFVKELLSSDAMKEYNRARVYLDENYKSQEHFTALGSFYFLHESLKNIYQFDFKAKKYRKVAGKEIYSDTLESTPMLEKEKFPQDYFPECKWSRKGFIRTRWCIADCAFDLVNIHLFHDASNLVAWETSPSVYSGIRHKALGYVLDRIIDQRFEKVSYFVFGDFNFRLDSKSVVETLCTKATMQTVRAADTNEVVKLIFRESDNDRKVMLQLEKKLFDYFNQEVFRDNNGTALLEFDKELSVFKDRLYELDISFPPSYPYSEDARQGEQYMNTRCPAWCDRILMSPSAKELVLRSESEEKVVTYDHIGPNVCMGDHKPVFLAFRIMPG,not soluble
